For one molecule, Kd results are on record in paper doi:10.1101/774158.

For series [1], the target named is CDA-ZnF-KLF1 (mouse, UniProt P46099 275-358, E321K). Briefly: EMSA. (Mobility shift assays separate free from complexed probe on a gel.)
The target in series [2] is WT-ZnF-KLF1 (mouse, UniProt P46099 275-358). Description: EMSA.
Sequence of WT-ZnF-KLF1 (P46099 275-358): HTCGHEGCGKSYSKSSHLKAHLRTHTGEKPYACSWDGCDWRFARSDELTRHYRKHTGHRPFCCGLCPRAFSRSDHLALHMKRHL

Sequence of CDA-ZnF-KLF1 (P46099 275-358 E321K): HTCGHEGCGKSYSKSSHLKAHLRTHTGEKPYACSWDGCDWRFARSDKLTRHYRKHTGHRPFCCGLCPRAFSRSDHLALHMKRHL

B1: 9xG (CDA-GGG) (dsDNA)
DNA 1: AGCTAAGGGGGGGGGCA
DNA 2: AGCTTGCCCCCCCCCTT
For orientation: Kd means the equilibrium constant for the complex coming apart. Higher therefore signals a looser complex. B1: the Kd in series [1] was 696 ± 71.1 nM; in series [2], about 4.99 µM.
